US20120172295A1 (INDIANA UNIVERSITY RESEARCH AND TECHNOLOGY, published 2012)
Read-outs that look alike come from different tables or passages of the source. Starred links: 1 amine or outer side, 2 acyl side, 3 side chain; linkers in the order of their positions; H or OH if unused. Non-standard residues stand in square brackets, D forms with d. Groups on a side chain read outwards from the residue. No end group written: not given here. *: point of attachment. Dab(Ac) = acetyldiaminobutanoic acid, CC(=O)NCC[C@H](N[*:1])C(=O)[*:2]; C(Acm) = acetamidomethyl-cysteine, CC(=O)NCSC[C@H](N[*:1])C(=O)[*:2]; Orn(Ac) = acetylornithine, CC(=O)NCCC[C@H](N[*:1])C(=O)[*:2]; γGlu = O=C(O)[C@H](CCC(=O)[*:2])N[*:1]; Dap(CONH2) = NC(=O)NC[C@H](N)C(=O)O; Stearoyl = CCCCCCCCCCCCCCCCCC(=O)*; Palmitoyl = CCCCCCCCCCCCCCCC(=O)*; Met(O) = CS(=O)CC[C@H](N)C(=O)O; Myristoyl = CCCCCCCCCCCCCC(=O)*; Nle = CCCC[C@H](N)C(=O)O; Dab = NCC[C@H](N)C(=O)O; Aib = CC(C)(N)C(=O)O; Ahx = NCCCCCC(=O)O; βAla = NCCC(=O)O

Experiments:
Experiment in all cases: cell-based or functional assay
[1] = target: T1, glucagon receptor (UniProt P47871 26-477, limits assumed)
[2] = target: T2, GLP-1 receptor (UniProt P43220 24-463, limits assumed)
[3] = target: T2, GLP-1 receptor; remark: listed apart in the source
[4] = target: T1, glucagon receptor; remark: listed apart in the source
[5] = target: T1, glucagon receptor; remark: listed apart in the source
[6] = target: T2, GLP-1 receptor; remark: listed apart in the source

T1 sequence (P47871 26-477 limits assumed): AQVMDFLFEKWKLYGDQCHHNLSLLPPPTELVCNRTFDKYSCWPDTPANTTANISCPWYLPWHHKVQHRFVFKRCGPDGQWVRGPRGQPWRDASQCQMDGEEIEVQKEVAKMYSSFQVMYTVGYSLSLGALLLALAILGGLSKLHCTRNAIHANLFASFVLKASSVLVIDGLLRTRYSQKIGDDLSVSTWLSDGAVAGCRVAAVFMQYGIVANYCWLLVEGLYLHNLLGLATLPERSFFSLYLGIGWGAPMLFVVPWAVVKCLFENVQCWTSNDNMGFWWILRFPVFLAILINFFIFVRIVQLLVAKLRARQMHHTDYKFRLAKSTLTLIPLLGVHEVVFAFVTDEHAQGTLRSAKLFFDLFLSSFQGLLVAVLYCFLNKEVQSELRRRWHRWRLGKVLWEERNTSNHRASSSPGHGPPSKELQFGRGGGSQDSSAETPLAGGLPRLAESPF

With H[Aib]QGTFTSDK([Ala-Ala-Palmitoyl])SKYLD[Aib]RRAQDFVC(PEG 40 kDa)WLMNT-NH2 [Peptide 79* (SEQ ID NO: 575)] the EC50 [1] was 0.102 nM.

In the case of H[Aib]QGTFTSDK([Ahx-Palmitoyl])SKYLD[Aib]RRAQDFVQWLMNT-NH2 [Peptide 85 (SEQ ID NO: 567)], the EC50 [2] is reported as 0.005 nM and the EC50 [1] is reported as 0.01 nM.

For H[Aib]QGTFTSDK([βAla-βAla-Palmitoyl])SKYLD[Aib]RRAQDFVQWLMNT-NH2 [Peptide 84 (SEQ ID NO: 566)], the EC50 [2] was 0.004 nM.

For HXQGTFTSDKSKYLDERRAKDFVQWLMNT (d-Ser at 2; Lys 10-C14 acyl; C-terminal amide) [dS2, E16/K20, K10(C14) Gluc Amide], the “% Activity of GLP-1” value [3] was 6.3%, the EC50 [3] was 0.128 nM and the “% Activity of Glucagon” value [4] was 21.9%. For the same binder, the EC50 [4] was 0.155 nM.

For HS[Dab(Ac)]GTFTSDYSKYLDTRRAAEFVAWL[Nle]DE [Peptide J backbone, Dab(Ac) at position 3 (SEQ ID NO: 595)], the “% activity” value [5] was 19% and the EC50 [5] was 0.31 nM.

B1: Peptide 26 (SEQ ID NO: 637) (peptide)
peptide: H[Aib]QGTFTSDYSKYLD[Aib]RRAQDFVQWLMNT-NH2
modifications: N-terminus assumed
SMILES: CSCC[C@H](NC(=O)[C@H](CC(C)C)NC(=O)[C@H](Cc1c[nH]c2ccccc12)NC(=O)[C@H](CCC(N)=O)NC(=O)[C@@H](NC(=O)[C@H](Cc1ccccc1)NC(=O)[C@H](CC(=O)O)NC(=O)[C@H](CCC(N)=O)NC(=O)[C@H](C)NC(=O)[C@H](CCCNC(=N)N)NC(=O)[C@H](CCCNC(=N)N)NC(=O)C(C)(C)NC(=O)[C@H](CC(=O)O)NC(=O)[C@H](CC(C)C)NC(=O)[C@H](Cc1ccc(O)cc1)NC(=O)[C@H](CCCCN)NC(=O)[C@H](CO)NC(=O)[C@H](Cc1ccc(O)cc1)NC(=O)[C@H](CC(=O)O)NC(=O)[C@H](CO)NC(=O)[C@@H](NC(=O)[C@H](Cc1ccccc1)NC(=O)[C@@H](NC(=O)CNC(=O)[C@H](CCC(N)=O)NC(=O)C(C)(C)NC(=O)[C@@H](N)Cc1c[nH]cn1)[C@@H](C)O)[C@@H](C)O)C(C)C)C(=O)N[C@@H](CC(N)=O)C(=O)N[C@H](C(N)=O)[C@@H](C)O
Work on B1 yielded an EC50 [2] of 0.475 nM and an EC50 [1] of 0.653 nM.

With H[Aib]QGTFTSDK([γGlu-γGlu-Palmitoyl])SKYLD[Aib]RRAQDFVC(PEG 40 kDa)WLMNT-NH2 [Peptide 80* (SEQ ID NO: 576)] the EC50 [1] was 0.108 nM.

H[Aib]QGTFTSDK([Ala-Ala-Myristoyl])SKYLD[Aib]RRAQDFVC(PEG 40 kDa)WLMNT-NH2 [Peptide 81* (SEQ ID NO: 573)] gave an EC50 [2] of 0.271 nM and an EC50 [1] of 0.597 nM.

For HXQGTFTSDKSKYLDERRAKDFVQWLMNT (d-Ser at 2; Lys 10-C16 acyl; C-terminal amide) [dS2, E16/K20, K10(C16) Gluc Amide], the “% Activity of GLP-1” value [3] was 19.5%, the EC50 [3] was 0.041 nM and the “% Activity of Glucagon” value [4] was 44.7%. For the same binder, the EC50 [4] was 0.076 nM.

B2: AIB2, AIB16, K10(C18) Gluc Amide (peptide)
peptide: H[Aib]QGTFTSDK(Stearoyl)SKYLD[Aib]RRAQDFVQWLMNT-NH2
modifications: N-terminus assumed
SMILES: CCCCCCCCCCCCCCCCCC(=O)NCCCC[C@H](NC(=O)[C@H](CC(=O)O)NC(=O)[C@H](CO)NC(=O)[C@@H](NC(=O)[C@H](Cc1ccccc1)NC(=O)[C@@H](NC(=O)CNC(=O)[C@H](CCC(N)=O)NC(=O)C(C)(C)NC(=O)[C@@H](N)Cc1c[nH]cn1)[C@@H](C)O)[C@@H](C)O)C(=O)N[C@@H](CO)C(=O)N[C@@H](CCCCN)C(=O)N[C@@H](Cc1ccc(O)cc1)C(=O)N[C@@H](CC(C)C)C(=O)N[C@@H](CC(=O)O)C(=O)NC(C)(C)C(=O)N[C@@H](CCCNC(=N)N)C(=O)N[C@@H](CCCNC(=N)N)C(=O)N[C@@H](C)C(=O)N[C@@H](CCC(N)=O)C(=O)N[C@@H](CC(=O)O)C(=O)N[C@@H](Cc1ccccc1)C(=O)N[C@H](C(=O)N[C@@H](CCC(N)=O)C(=O)N[C@@H](Cc1c[nH]c2ccccc12)C(=O)N[C@@H](CC(C)C)C(=O)N[C@@H](CCSC)C(=O)N[C@@H](CC(N)=O)C(=O)N[C@H](C(N)=O)[C@@H](C)O)C(C)C
In the case of B2, the “% Activity of GLP-1” value [3] is reported as 88.9%, the EC50 [3] is reported as 0.009 nM and the “% Activity of Glucagon” value [4] is reported as 212%. For the same binder, the EC50 [4] was 0.016 nM.

For HSQGTFTSDYSKYLDSRRAQDFVQWLMNGGPSSGAPPPS-NH2 [MNGG30 PSSGAPPPS (SEQ ID NO: 522)], the EC50 [6] was 0.31 nM and the “Relative Potency (%)” value [6] was 8%.

HSQGTFTSDYSKYLDTRRAAEFVAWL[Nle]DE [Peptide J backbone, Q at position 3 (SEQ ID NO: 593)] was tested, and the “% activity” value [5] was 25%.

H[Aib]QGTFTSDK(Myristoyl)SKYLD[Aib]RRAQDFVC(PEG 40 kDa)WLMNT-NH2 [Peptide 77* (SEQ ID NO: 570)] gave an EC50 [2] of 1.46 nM and an EC50 [1] of 21.9 nM.

In the case of HS[Dab](Ac)GTFTSDYSKYLD[Aib]RRAADFVAWLMDE [Peptide K backbone, Dab(Ac) at position 3 (SEQ ID NO: 601)], the “% activity” value [5] is reported as 86% and the EC50 [5] is reported as 0.07 nM.

With H[Aib]QGTFTSDK([Leu-Leu-Palmitoyl])SKYLD[Aib]RRAQDFVQWLMNT-NH2 [Peptide 86 (SEQ ID NO: 568)] the EC50 [2] was 0.006 nM.

For HS[Orn(Ac)]GTFTSDYSKYLDTRRAAEFVAWL[Nle]DE [Peptide J backbone, Orn(Ac) at position 3 (SEQ ID NO: 599)], the “% activity” value [5] was 7% and the EC50 [5] was 0.92 nM.

HSQGTFTSDYSKYLD[Aib]RRAADFVAWLMDE [Peptide K backbone, Q at position 3 (SEQ ID NO: 600)] was tested, and the “% activity” value [5] was 15%.

In the case of HXQGTFTSDKSKYLDERRAKDFVQWLMNT (d-Ser at 2; Lys 10-C18 acyl; C-terminal amide) [dS2, E16/K20, K10(C18) Gluc Amide], the “% Activity of GLP-1” value [3] is reported as 60%, the EC50 [3] is reported as 0.025 nM and the “% Activity of Glucagon” value [4] is reported as 196%.

For HS[Dap(CONH2)]GTFTSDYSKYLDTRRAAEFVAWL[Nle]DE [Peptide J backbone, Dap(urea) at position 3 (SEQ ID NO: 596)], the “% activity” value [5] was 13% and the EC50 [5] was 0.48 nM.

HS[C(Acm)]GTFTSDYSKYLDTRRAAEFVAWL[Nle]DE [Peptide J backbone, C(Acm) at position 3 (SEQ ID NO: 594)] was tested, and the “% activity” value [5] was 33% and the EC50 [5] was 0.18 nM.

H[Aib]QGTFTSDK([γGlu-γGlu-Myristoyl])SKYLD[Aib]RRAQDFVC(PEG 40 kDa)WLMNT-NH2 [Peptide 78* (SEQ ID NO: 571)] gave an EC50 [2] of 0.103 nM and an EC50 [1] of 0.319 nM.

In the case of H[Aib]QGTFTSDK([Pro-Pro-Palmitoyl])SKYLD[Aib]RRAQDFVQWLMNT-NH2 [Peptide 87 (SEQ ID NO: 569)], the EC50 [2] is reported as 0.009 nM and the EC50 [1] is reported as 0.017 nM.

With HS[Met(O)]GTFTSDYSKYLDTRRAAEFVAWL[Nle]DE [Peptide J backbone, M(O) at position 3 (SEQ ID NO: 598)] the “% activity” value [5] was 7% and the EC50 [5] was 0.91 nM.

HSQGTFTSDYSKYLDERRAKDFVQWLMDGGPSSGAPPPS-NH2 [E16K20-MDGG30 PSSGAPPPS (SEQ ID NO: 526)] gave an EC50 [6] of 0.02 nM.

For HAEGTFTSDVSSYLEGQAAKEFIAWLVKGG-NH2 [GLP-1-VKGG30 (SEQ ID NO: 527)], the EC50 [6] was 0.025 nM and the “Relative Potency (%)” value [6] was 100%.

B3: Peptide 83 (SEQ ID NO: 565) (peptide)
peptide: H[Aib]QGTFTSDK([γGlu-γGlu-Palmitoyl])SKYLD[Aib]RRAQDFVQWLMNT-NH2
modifications: N-terminus assumed
SMILES: CCCCCCCCCCCCCCCC(=O)N[C@@H](CCC(=O)N[C@@H](CCC(=O)NCCCC[C@H](NC(=O)[C@H](CC(=O)O)NC(=O)[C@H](CO)NC(=O)[C@@H](NC(=O)[C@H](Cc1ccccc1)NC(=O)[C@@H](NC(=O)CNC(=O)[C@H](CCC(N)=O)NC(=O)C(C)(C)NC(=O)[C@@H](N)Cc1c[nH]cn1)[C@@H](C)O)[C@@H](C)O)C(=O)N[C@@H](CO)C(=O)N[C@@H](CCCCN)C(=O)N[C@@H](Cc1ccc(O)cc1)C(=O)N[C@@H](CC(C)C)C(=O)N[C@@H](CC(=O)O)C(=O)NC(C)(C)C(=O)N[C@@H](CCCNC(=N)N)C(=O)N[C@@H](CCCNC(=N)N)C(=O)N[C@@H](C)C(=O)N[C@@H](CCC(N)=O)C(=O)N[C@@H](CC(=O)O)C(=O)N[C@@H](Cc1ccccc1)C(=O)N[C@H](C(=O)N[C@@H](CCC(N)=O)C(=O)N[C@@H](Cc1c[nH]c2ccccc12)C(=O)N[C@@H](CC(C)C)C(=O)N[C@@H](CCSC)C(=O)N[C@@H](CC(N)=O)C(=O)N[C@H](C(N)=O)[C@@H](C)O)C(C)C)C(=O)O)C(=O)O
B3 was tested, and the EC50 [2] was 0.043 nM.

For H[Aib]QGTFTSDK([Ala-Ala-Palmitoyl])SKYLD[Aib]RRAQDFVQWLMNT-NH2 [Peptide 82 (SEQ ID NO: 564)], the EC50 [2] was 0.108 nM and the EC50 [1] was 0.024 nM.
